For six molecules, Ki results are on record in patent publication US20260015399A1 (Boehringer Ingelheim, published 2026).

T1: human NPY2 receptor (human, UniProt P49146 1-381)
T1 construct: whole, on cells; also called hNPY2-R; hNPY2R
T1 sequence (looked up): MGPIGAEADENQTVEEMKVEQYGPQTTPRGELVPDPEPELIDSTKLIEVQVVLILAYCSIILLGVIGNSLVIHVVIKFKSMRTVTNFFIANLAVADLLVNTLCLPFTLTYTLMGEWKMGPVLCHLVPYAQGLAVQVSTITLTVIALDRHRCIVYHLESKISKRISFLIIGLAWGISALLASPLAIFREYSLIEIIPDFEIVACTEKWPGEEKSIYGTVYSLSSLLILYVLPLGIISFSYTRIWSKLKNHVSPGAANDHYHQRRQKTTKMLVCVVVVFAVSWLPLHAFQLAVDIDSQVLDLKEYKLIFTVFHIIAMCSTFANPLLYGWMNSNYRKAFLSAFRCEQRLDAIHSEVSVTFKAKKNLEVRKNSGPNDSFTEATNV

B1: Compound 31 (peptide)
peptide: Isovaleryl-APEK([Ahx-γGlu-C18 diacid])PEEDATPEELQPYYVSLRHYYNWLTRQRY-NH2
SMILES: CC(C)CC(=O)N[C@@H](C)C(=O)N1CCC[C@H]1C(=O)N[C@@H](CCC(=O)O)C(=O)N[C@@H](CCCCNC(=O)CCCCCNC(=O)CC[C@H](NC(=O)CCCCCCCCCCCCCCCCC(=O)O)C(=O)O)C(=O)N1CCC[C@H]1C(=O)N[C@@H](CCC(=O)O)C(=O)N[C@@H](CCC(=O)O)C(=O)N[C@@H](CC(=O)O)C(=O)N[C@@H](C)C(=O)N[C@H](C(=O)N1CCC[C@H]1C(=O)N[C@@H](CCC(=O)O)C(=O)N[C@@H](CCC(=O)O)C(=O)N[C@@H](CC(C)C)C(=O)N[C@@H](CCC(N)=O)C(=O)N1CCC[C@H]1C(=O)N[C@@H](Cc1ccc(O)cc1)C(=O)N[C@@H](Cc1ccc(O)cc1)C(=O)N[C@H](C(=O)N[C@@H](CO)C(=O)N[C@@H](CC(C)C)C(=O)N[C@@H](CCCNC(=N)N)C(=O)N[C@@H](Cc1c[nH]cn1)C(=O)N[C@@H](Cc1ccc(O)cc1)C(=O)N[C@@H](Cc1ccc(O)cc1)C(=O)N[C@@H](CC(N)=O)C(=O)N[C@@H](Cc1c[nH]c2ccccc12)C(=O)N[C@@H](CC(C)C)C(=O)N[C@H](C(=O)N[C@@H](CCCNC(=N)N)C(=O)N[C@@H](CCC(N)=O)C(=O)N[C@@H](CCCNC(=N)N)C(=O)N[C@@H](Cc1ccc(O)cc1)C(N)=O)[C@@H](C)O)C(C)C)[C@@H](C)O
B2: Compound 32 (peptide)
peptide: Isovaleryl-APAK([Ahx-γGlu-C18 diacid])PEEDASPEELQRYYVSLRHQYNWLTRQRY-NH2
SMILES: CC(C)CC(=O)N[C@@H](C)C(=O)N1CCC[C@H]1C(=O)N[C@@H](C)C(=O)N[C@@H](CCCCNC(=O)CCCCCNC(=O)CC[C@H](NC(=O)CCCCCCCCCCCCCCCCC(=O)O)C(=O)O)C(=O)N1CCC[C@H]1C(=O)N[C@@H](CCC(=O)O)C(=O)N[C@@H](CCC(=O)O)C(=O)N[C@@H](CC(=O)O)C(=O)N[C@@H](C)C(=O)N[C@@H](CO)C(=O)N1CCC[C@H]1C(=O)N[C@@H](CCC(=O)O)C(=O)N[C@@H](CCC(=O)O)C(=O)N[C@@H](CC(C)C)C(=O)N[C@@H](CCC(N)=O)C(=O)N[C@@H](CCCNC(=N)N)C(=O)N[C@@H](Cc1ccc(O)cc1)C(=O)N[C@@H](Cc1ccc(O)cc1)C(=O)N[C@H](C(=O)N[C@@H](CO)C(=O)N[C@@H](CC(C)C)C(=O)N[C@@H](CCCNC(=N)N)C(=O)N[C@@H](Cc1c[nH]cn1)C(=O)N[C@@H](CCC(N)=O)C(=O)N[C@@H](Cc1ccc(O)cc1)C(=O)N[C@@H](CC(N)=O)C(=O)N[C@@H](Cc1c[nH]c2ccccc12)C(=O)N[C@@H](CC(C)C)C(=O)N[C@H](C(=O)N[C@@H](CCCNC(=N)N)C(=O)N[C@@H](CCC(N)=O)C(=O)N[C@@H](CCCNC(=N)N)C(=O)N[C@@H](Cc1ccc(O)cc1)C(N)=O)[C@@H](C)O)C(C)C
B3: Compound 35 (peptide)
peptide: Isovaleryl-APAK([Ahx-γGlu-C18 diacid])PEEAATPEELQRYYVSLRHYYNWLTRQRY-NH2
SMILES: CC(C)CC(=O)N[C@@H](C)C(=O)N1CCC[C@H]1C(=O)N[C@@H](C)C(=O)N[C@@H](CCCCNC(=O)CCCCCNC(=O)CC[C@H](NC(=O)CCCCCCCCCCCCCCCCC(=O)O)C(=O)O)C(=O)N1CCC[C@H]1C(=O)N[C@@H](CCC(=O)O)C(=O)N[C@@H](CCC(=O)O)C(=O)N[C@@H](C)C(=O)N[C@@H](C)C(=O)N[C@H](C(=O)N1CCC[C@H]1C(=O)N[C@@H](CCC(=O)O)C(=O)N[C@@H](CCC(=O)O)C(=O)N[C@@H](CC(C)C)C(=O)N[C@@H](CCC(N)=O)C(=O)N[C@@H](CCCNC(=N)N)C(=O)N[C@@H](Cc1ccc(O)cc1)C(=O)N[C@@H](Cc1ccc(O)cc1)C(=O)N[C@H](C(=O)N[C@@H](CO)C(=O)N[C@@H](CC(C)C)C(=O)N[C@@H](CCCNC(=N)N)C(=O)N[C@@H](Cc1c[nH]cn1)C(=O)N[C@@H](Cc1ccc(O)cc1)C(=O)N[C@@H](Cc1ccc(O)cc1)C(=O)N[C@@H](CC(N)=O)C(=O)N[C@@H](Cc1c[nH]c2ccccc12)C(=O)N[C@@H](CC(C)C)C(=O)N[C@H](C(=O)N[C@@H](CCCNC(=N)N)C(=O)N[C@@H](CCC(N)=O)C(=O)N[C@@H](CCCNC(=N)N)C(=O)N[C@@H](Cc1ccc(O)cc1)C(N)=O)[C@@H](C)O)C(C)C)[C@@H](C)O
B4: Compound 33 (peptide)
peptide: Isovaleryl-APAK([Ahx-γGlu-C18 diacid])PEEDAEPEELQRYYISLRHYYNWLTRQRY-NH2
SMILES: CC[C@H](C)[C@H](NC(=O)[C@H](Cc1ccc(O)cc1)NC(=O)[C@H](Cc1ccc(O)cc1)NC(=O)[C@H](CCCNC(=N)N)NC(=O)[C@H](CCC(N)=O)NC(=O)[C@H](CC(C)C)NC(=O)[C@H](CCC(=O)O)NC(=O)[C@H](CCC(=O)O)NC(=O)[C@@H]1CCCN1C(=O)[C@H](CCC(=O)O)NC(=O)[C@H](C)NC(=O)[C@H](CC(=O)O)NC(=O)[C@H](CCC(=O)O)NC(=O)[C@H](CCC(=O)O)NC(=O)[C@@H]1CCCN1C(=O)[C@H](CCCCNC(=O)CCCCCNC(=O)CC[C@H](NC(=O)CCCCCCCCCCCCCCCCC(=O)O)C(=O)O)NC(=O)[C@H](C)NC(=O)[C@@H]1CCCN1C(=O)[C@H](C)NC(=O)CC(C)C)C(=O)N[C@@H](CO)C(=O)N[C@@H](CC(C)C)C(=O)N[C@@H](CCCNC(=N)N)C(=O)N[C@@H](Cc1c[nH]cn1)C(=O)N[C@@H](Cc1ccc(O)cc1)C(=O)N[C@@H](Cc1ccc(O)cc1)C(=O)N[C@@H](CC(N)=O)C(=O)N[C@@H](Cc1c[nH]c2ccccc12)C(=O)N[C@@H](CC(C)C)C(=O)N[C@H](C(=O)N[C@@H](CCCNC(=N)N)C(=O)N[C@@H](CCC(N)=O)C(=O)N[C@@H](CCCNC(=N)N)C(=O)N[C@@H](Cc1ccc(O)cc1)C(N)=O)[C@@H](C)O
B5: Compound 34 (peptide)
peptide: Isovaleryl-APEK([Ahx-γGlu-C18 diacid])PEEDASAEELQQYYVSLRHYYNWLTRQRY-NH2
SMILES: CC(C)CC(=O)N[C@@H](C)C(=O)N1CCC[C@H]1C(=O)N[C@@H](CCC(=O)O)C(=O)N[C@@H](CCCCNC(=O)CCCCCNC(=O)CC[C@H](NC(=O)CCCCCCCCCCCCCCCCC(=O)O)C(=O)O)C(=O)N1CCC[C@H]1C(=O)N[C@@H](CCC(=O)O)C(=O)N[C@@H](CCC(=O)O)C(=O)N[C@@H](CC(=O)O)C(=O)N[C@@H](C)C(=O)N[C@@H](CO)C(=O)N[C@@H](C)C(=O)N[C@@H](CCC(=O)O)C(=O)N[C@@H](CCC(=O)O)C(=O)N[C@@H](CC(C)C)C(=O)N[C@@H](CCC(N)=O)C(=O)N[C@@H](CCC(N)=O)C(=O)N[C@@H](Cc1ccc(O)cc1)C(=O)N[C@@H](Cc1ccc(O)cc1)C(=O)N[C@H](C(=O)N[C@@H](CO)C(=O)N[C@@H](CC(C)C)C(=O)N[C@@H](CCCNC(=N)N)C(=O)N[C@@H](Cc1c[nH]cn1)C(=O)N[C@@H](Cc1ccc(O)cc1)C(=O)N[C@@H](Cc1ccc(O)cc1)C(=O)N[C@@H](CC(N)=O)C(=O)N[C@@H](Cc1c[nH]c2ccccc12)C(=O)N[C@@H](CC(C)C)C(=O)N[C@H](C(=O)N[C@@H](CCCNC(=N)N)C(=O)N[C@@H](CCC(N)=O)C(=O)N[C@@H](CCCNC(=N)N)C(=O)N[C@@H](Cc1ccc(O)cc1)C(N)=O)[C@@H](C)O)C(C)C
B6: Compound 36 (peptide)
peptide: Isovaleryl-APAK([Ahx-γGlu-C18 diacid])PEEAATPEEIQRYYVSLRHYYNWLTRQRY-NH2
SMILES: CC[C@H](C)[C@H](NC(=O)[C@H](CCC(=O)O)NC(=O)[C@H](CCC(=O)O)NC(=O)[C@@H]1CCCN1C(=O)[C@@H](NC(=O)[C@H](C)NC(=O)[C@H](C)NC(=O)[C@H](CCC(=O)O)NC(=O)[C@H](CCC(=O)O)NC(=O)[C@@H]1CCCN1C(=O)[C@H](CCCCNC(=O)CCCCCNC(=O)CC[C@H](NC(=O)CCCCCCCCCCCCCCCCC(=O)O)C(=O)O)NC(=O)[C@H](C)NC(=O)[C@@H]1CCCN1C(=O)[C@H](C)NC(=O)CC(C)C)[C@@H](C)O)C(=O)N[C@@H](CCC(N)=O)C(=O)N[C@@H](CCCNC(=N)N)C(=O)N[C@@H](Cc1ccc(O)cc1)C(=O)N[C@@H](Cc1ccc(O)cc1)C(=O)N[C@H](C(=O)N[C@@H](CO)C(=O)N[C@@H](CC(C)C)C(=O)N[C@@H](CCCNC(=N)N)C(=O)N[C@@H](Cc1c[nH]cn1)C(=O)N[C@@H](Cc1ccc(O)cc1)C(=O)N[C@@H](Cc1ccc(O)cc1)C(=O)N[C@@H](CC(N)=O)C(=O)N[C@@H](Cc1c[nH]c2ccccc12)C(=O)N[C@@H](CC(C)C)C(=O)N[C@H](C(=O)N[C@@H](CCCNC(=N)N)C(=O)N[C@@H](CCC(N)=O)C(=O)N[C@@H](CCCNC(=N)N)C(=O)N[C@@H](Cc1ccc(O)cc1)C(N)=O)[C@@H](C)O)C(C)C

*1 amine or outer side, *2 acyl side, *3 side chain or, on linkers, in order; H or OH if unused. Side-chain parts run from the residue outwards. The star is where a group is joined. C18 diacid = O=C(O)CCCCCCCCCCCCCCCCC(=O)*; γGlu = O=C(O)[C@H](CCC(=O)[*:2])N[*:1]; Isovaleryl = CC(C)CC(=O)*; Ahx = NCCCCCC(=O)O

For orientation: Ki means a dissociation constant, usually derived from enzyme kinetics or from competition with a known ligand. Low readings indicate higher affinity, high ones lower affinity.

The target of the assay is T1, human NPY2 receptor. The experiment in a line: RLB: displacement of 125I-PYY(1-36) from hNPY2R membranes. In general terms: Displacement assays read how much labelled ligand stays bound in the presence of the test substance.
In turn, B1 yielded a Ki of 34.7 nM. Then B2, with 13.6 nM; and B3, with 1.4 nM.

Turning to B4, the affinity, expressed as Ki, was 2.53 nM. Next, B5: 3.53 nM; B6: 1.25 nM.
